The text below walks through data of patent publication US20220098681A1 (INSERM INSTITUTE NATIONAL DE LA SANT ET DE LA RECHERCHE M …, published 2022).

In test [1] the target is T1, C-terminal HA-tagged FHL1A (human, UniProt Q13642-1 2-280).
T1 sequence: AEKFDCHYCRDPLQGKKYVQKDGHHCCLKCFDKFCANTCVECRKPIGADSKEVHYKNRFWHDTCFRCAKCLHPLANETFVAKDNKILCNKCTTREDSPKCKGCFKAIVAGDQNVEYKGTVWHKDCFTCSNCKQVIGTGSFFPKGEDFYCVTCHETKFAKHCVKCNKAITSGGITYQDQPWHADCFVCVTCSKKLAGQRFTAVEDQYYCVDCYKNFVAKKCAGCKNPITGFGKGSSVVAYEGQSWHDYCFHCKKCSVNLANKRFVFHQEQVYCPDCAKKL
The experiment in a line: co-immunoprecipitation, immunoblot (FIG. 4). Background: Immunoblotting shows a protein as a band on a membrane.

Test [2] deals with T2, C-terminal HA-tagged FHL2 (UniProt Q14192 1-279).
T2 sequence: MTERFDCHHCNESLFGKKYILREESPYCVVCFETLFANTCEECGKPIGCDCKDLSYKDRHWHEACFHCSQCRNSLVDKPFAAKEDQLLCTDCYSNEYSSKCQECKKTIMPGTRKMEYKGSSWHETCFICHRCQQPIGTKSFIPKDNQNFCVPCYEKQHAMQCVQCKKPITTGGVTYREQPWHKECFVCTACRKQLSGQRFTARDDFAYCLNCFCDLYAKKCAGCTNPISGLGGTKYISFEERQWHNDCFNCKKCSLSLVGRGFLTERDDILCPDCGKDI
Kind of test: co-immunoprecipitation from co-transfected 293T cells.

The target in the next test is G3BP1 (UniProt Q13283 2-466). The experiment in a line: co-immunoprecipitation in ΔFHL1 cells.
The target of the next test is T3, GST-nsP3ΔHVD (chikungunya virus, UniProt Q8JUX6 1334-1657).
T3 chain: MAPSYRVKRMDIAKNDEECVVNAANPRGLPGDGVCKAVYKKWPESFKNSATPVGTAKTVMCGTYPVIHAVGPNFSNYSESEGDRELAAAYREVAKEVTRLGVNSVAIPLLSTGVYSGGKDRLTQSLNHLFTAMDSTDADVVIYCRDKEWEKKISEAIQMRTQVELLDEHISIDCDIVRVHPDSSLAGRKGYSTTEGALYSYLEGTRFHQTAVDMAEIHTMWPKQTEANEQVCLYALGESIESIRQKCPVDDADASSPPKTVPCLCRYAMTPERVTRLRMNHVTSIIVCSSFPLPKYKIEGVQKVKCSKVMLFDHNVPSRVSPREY
Kind of test: GST pull-down with purified proteins, western blot with anti-FHL1.

Another test deals with T4, GST-nsP3 (chikungunya virus, UniProt Q8JUX6 1334-1856).
T4 chain: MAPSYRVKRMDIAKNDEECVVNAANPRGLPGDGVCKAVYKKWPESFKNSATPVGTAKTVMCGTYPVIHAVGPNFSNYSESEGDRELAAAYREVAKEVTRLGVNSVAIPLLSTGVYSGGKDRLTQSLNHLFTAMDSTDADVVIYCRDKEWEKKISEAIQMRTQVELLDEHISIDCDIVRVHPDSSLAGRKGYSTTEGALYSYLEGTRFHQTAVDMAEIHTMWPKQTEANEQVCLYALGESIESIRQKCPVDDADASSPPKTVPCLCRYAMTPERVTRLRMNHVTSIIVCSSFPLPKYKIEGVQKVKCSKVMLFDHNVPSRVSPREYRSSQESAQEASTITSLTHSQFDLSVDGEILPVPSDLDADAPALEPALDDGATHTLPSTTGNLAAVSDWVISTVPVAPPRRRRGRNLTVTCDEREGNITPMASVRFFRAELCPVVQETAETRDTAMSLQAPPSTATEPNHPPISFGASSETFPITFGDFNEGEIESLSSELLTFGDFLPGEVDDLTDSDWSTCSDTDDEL
The test is described as above.

Chain of G3BP1 (Q13283 2-466 limits assumed): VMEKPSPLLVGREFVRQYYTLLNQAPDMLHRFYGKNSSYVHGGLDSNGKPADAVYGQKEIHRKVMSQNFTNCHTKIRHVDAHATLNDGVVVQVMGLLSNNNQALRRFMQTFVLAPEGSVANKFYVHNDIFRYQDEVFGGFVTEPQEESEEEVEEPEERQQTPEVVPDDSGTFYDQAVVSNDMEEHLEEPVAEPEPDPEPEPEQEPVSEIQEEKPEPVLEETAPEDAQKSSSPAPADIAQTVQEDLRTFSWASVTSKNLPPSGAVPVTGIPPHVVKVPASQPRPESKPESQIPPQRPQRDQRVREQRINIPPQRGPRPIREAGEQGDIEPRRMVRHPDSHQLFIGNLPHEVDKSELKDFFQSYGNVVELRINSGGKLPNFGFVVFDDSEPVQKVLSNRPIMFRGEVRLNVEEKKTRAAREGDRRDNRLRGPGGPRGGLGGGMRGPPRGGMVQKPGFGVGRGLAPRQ

B1: FLAG-tagged CHIKV nsP3 (pCI-neo-3×FLAG plasmid expressing the CHIKV nsP3) (other)
chain: MAPSYRVKRMDIAKNDEECVVNAANPRGLPGDGVCKAVYKKWPESFKNSATPVGTAKTVMCGTYPVIHAVGPNFSNYSESEGDRELAAAYREVAKEVTRLGVNSVAIPLLSTGVYSGGKDRLTQSLNHLFTAMDSTDADVVIYCRDKEWEKKISEAIQMRTQVELLDEHISIDCDIVRVHPDSSLAGRKGYSTTEGALYSYLEGTRFHQTAVDMAEIHTMWPKQTEANEQVCLYALGESIESIRQKCPVDDADASSPPKTVPCLCRYAMTPERVTRLRMNHVTSIIVCSSFPLPKYKIEGVQKVKCSKVMLFDHNVPSRVSPREYRSSQESAQEASTITSLTHSQFDLSVDGEILPVPSDLDADAPALEPALDDGATHTLPSTTGNLAAVSDWVISTVPVAPPRRRRGRNLTVTCDEREGNITPMASVRFFRAELCPVVQETAETRDTAMSLQAPPSTATEPNHPPISFGASSETFPITFGDFNEGEIESLSSELLTFGDFLPGEVDDLTDSDWSTCSDTDDEL
On to B1, for which the binding result (in test [1]; in test [2]; with G3BP1) was “binds” in each case.

B2: 6×His-FHL1A (other)
chain: AEKFDCHYCRDPLQGKKYVQKDGHHCCLKCFDKFCANTCVECRKPIGADSKEVHYKNRFWHDTCFRCAKCLHPLANETFVAKDNKILCNKCTTREDSPKCKGCFKAIVAGDQNVEYKGTVWHKDCFTCSNCKQVIGTGSFFPKGEDFYCVTCHETKFAKHCVKCNKAITSGGITYQDQPWHADCFVCVTCSKKLAGQRFTAVEDQYYCVDCYKNFVAKKCAGCKNPITGFGKGSSVVAYEGQSWHDYCFHCKKCSVNLANKRFVFHQEQVYCPDCAKKL
As for B2, the figures for the binding result in the test with GST-nsP3ΔHVD and in the test with GST-nsP3 were “no binding” and “binds”, respectively.
